Sequences and labels used below:
B1: TPR t1 (parent)
chain: GACCAAUCUGCCCUCAGAGCUCGAGAACAUCUUCGGAUGCAGAGGAGGCAGGCUUCGGUGGCGCGAUAGCGCCAACGUCCUCAACCUCCAAUGCAUCCCACCACAUGAUGAUGCCUGAAGAGCCUUGGUUUUUUG

Variants of B1 are the subject of the data set. In words: polymerase ribozyme fitness, log enrichment relative to wild type (log ratio); higher = more active; in vitro selection for triplet polymerase activity. In outline:
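Fitness measures genotype enrichment against wild-type enrichment on a logarithmic scale, with inverse-variance-weighted averaging of replicates. The logarithm is base 2, and genotypes were kept only with ≥10 input reads and ≥1 read per output in Illumina sequencing. The sequenced libraries came from one triplicate in vitro selection round, including frozen incubation at −7 °C, of PCR-built, transcribed mutant libraries of each subunit of a heterodimeric triplet polymerase ribozyme.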
On to G52A G60C C70U U109A, for which the “polymerase ribozyme fitness (log ratio)” value is -5.53.

Take G10A A37U G45U C80A G110C: the “polymerase ribozyme fitness (log ratio)” value is -7.42.

C15A G57A C94U: the “polymerase ribozyme fitness (log ratio)” value is -2.78.

Turning to C12A A46U C114U, the “polymerase ribozyme fitness (log ratio)” value was -3.89.

Regarding A6G G25A C34U G42C G69C U87C C114A C124U, the “polymerase ribozyme fitness (log ratio)” value was -6.61.

As for G25C A26G C28A C72A G110A, the “polymerase ribozyme fitness (log ratio)” value is -5.56.

As to A18G A50U C56A C79A C101U A118U C124U, the “polymerase ribozyme fitness (log ratio)” value was -7.24.

As to C82G C123U, the “polymerase ribozyme fitness (log ratio)” value was 0.314.

As to U9A C40U A46U C56U C115G U131G, the “polymerase ribozyme fitness (log ratio)” value was -1.77.

In the case of G61A A74C, the “polymerase ribozyme fitness (log ratio)” value was -1.86.

A26U G127C: the “polymerase ribozyme fitness (log ratio)” value is -3.57.

With G23C A27G G110U, the “polymerase ribozyme fitness (log ratio)” value is -6.38.

Consider A74U A95U, for which the “polymerase ribozyme fitness (log ratio)” value is -0.222.

As to G39C C53A U54G G120U, the “polymerase ribozyme fitness (log ratio)” value is 0.139.

In the case of C72A U132A, the “polymerase ribozyme fitness (log ratio)” value was -0.00723.

Take C40A A43G C56G G135U: the “polymerase ribozyme fitness (log ratio)” value was -4.41.

With G10A G45U, the “polymerase ribozyme fitness (log ratio)” value was -1.26.

With U109A U130A, the “polymerase ribozyme fitness (log ratio)” value was -5.09.

Take U9G C76U: the “polymerase ribozyme fitness (log ratio)” value came to 0.331.

Consider G47A U54A A90G U131G, for which the “polymerase ribozyme fitness (log ratio)” value was -0.834.

With C70G C99A G113A, the “polymerase ribozyme fitness (log ratio)” value is -6.35.

As to C13G C56G C101U, the “polymerase ribozyme fitness (log ratio)” value was -2.67.

Consider G61A G77U, for which the “polymerase ribozyme fitness (log ratio)” value came to 0.142.

Turning to C13U G58C A84G, the “polymerase ribozyme fitness (log ratio)” value was -0.641.

Turning to A5C C8U C34A C79U C101G, the “polymerase ribozyme fitness (log ratio)” value was -3.49.

Regarding G10U G110C, the “polymerase ribozyme fitness (log ratio)” value is -4.86.

On to A41U G45C, for which the “polymerase ribozyme fitness (log ratio)” value was -2.41.

Take G45A C64G A68C C104A G117U: the “polymerase ribozyme fitness (log ratio)” value is -6.22.

As to C34A G58A, the “polymerase ribozyme fitness (log ratio)” value was -2.81.

Turning to C12G C64A U133A, the “polymerase ribozyme fitness (log ratio)” value is -5.1.

For U14A G44U G117U A118U, the “polymerase ribozyme fitness (log ratio)” value was -4.78.

With A5U C11G A29U, the “polymerase ribozyme fitness (log ratio)” value is -3.66.

Take C12U G42A A95U: the “polymerase ribozyme fitness (log ratio)” value is -1.64.

As to C22G C72U, the “polymerase ribozyme fitness (log ratio)” value is -3.13.

As for G45U G57U C73G U78A C94A A119G, the “polymerase ribozyme fitness (log ratio)” value was -0.559.

Turning to C56U C73A C85A A91G, the “polymerase ribozyme fitness (log ratio)” value is -5.09.

As to C12U G19A C56G U130C, the “polymerase ribozyme fitness (log ratio)” value is -2.66.

With A5G C82U, the “polymerase ribozyme fitness (log ratio)” value was -0.0686.

U106A C124A G128A: the “polymerase ribozyme fitness (log ratio)” value came out at 0.53.

Turning to G42U A121C, the “polymerase ribozyme fitness (log ratio)” value came out at 0.464.

Turning to U33G C64U U112G, the “polymerase ribozyme fitness (log ratio)” value is -6.48.

A74U U96A A100U G113U: the “polymerase ribozyme fitness (log ratio)” value is -6.78.

As for A29G C53A C70G G110C, the “polymerase ribozyme fitness (log ratio)” value is -5.69.

Turning to A18G C124A, the “polymerase ribozyme fitness (log ratio)” value was -0.403.

Take C34A A84G A121G: the “polymerase ribozyme fitness (log ratio)” value is -2.74.

As to C4A G93A, the “polymerase ribozyme fitness (log ratio)” value is -1.73.

As to C4G C124A, the “polymerase ribozyme fitness (log ratio)” value turned out to be 0.669.

With C34U A84U U131G, the “polymerase ribozyme fitness (log ratio)” value was -5.95.

On to C4G U38A A95U G127C, for which the “polymerase ribozyme fitness (log ratio)” value is -0.148.

Turning to G45A G48U, the “polymerase ribozyme fitness (log ratio)” value was -1.58.

Turning to U38G A121C, the “polymerase ribozyme fitness (log ratio)” value was found to be 1.24.

C20U G52C C72U: the “polymerase ribozyme fitness (log ratio)” value was -2.41.

In the case of A18G U131A, the “polymerase ribozyme fitness (log ratio)” value is -2.69.

As to A6C C13U C53U C85U A105U C124A U126G, the “polymerase ribozyme fitness (log ratio)” value was -3.62.

As to A6C A24G A37U G48C G69C C79G C85G C101A C124U, the “polymerase ribozyme fitness (log ratio)” value was -5.82.

Take G42U C49A U81G: the “polymerase ribozyme fitness (log ratio)” value was -5.58.

For the variant C70A A121G, the “polymerase ribozyme fitness (log ratio)” value stood at 0.93.

For U21G C102A, the “polymerase ribozyme fitness (log ratio)” value is -2.91.

As for C31U U54G U59C A103C A111C, the “polymerase ribozyme fitness (log ratio)” value was -5.45.

Consider A6C C72U, for which the “polymerase ribozyme fitness (log ratio)” value is -0.203.

Take G44U G71U: the “polymerase ribozyme fitness (log ratio)” value was -1.06.

For G35C C76G C99G A100C U112A G120A, the “polymerase ribozyme fitness (log ratio)” value was -6.53.

Turning to G48A C85A, the “polymerase ribozyme fitness (log ratio)” value was -0.739.

In the case of U7C U9G A26G C72A, the “polymerase ribozyme fitness (log ratio)” value was -1.08.

Take G77U U96A: the “polymerase ribozyme fitness (log ratio)” value was -1.04.

Turning to A46G G61A C80U C94U, the “polymerase ribozyme fitness (log ratio)” value is -2.56.

For C86G C89G C104U, the “polymerase ribozyme fitness (log ratio)” value is -0.896.

U30C U78A U96A: the “polymerase ribozyme fitness (log ratio)” value was -5.15.

In the case of C104A G120C G127A U129A, the “polymerase ribozyme fitness (log ratio)” value was -2.25.

Take C11G C22G A41G G128C: the “polymerase ribozyme fitness (log ratio)” value was -5.82.

With C98U G120C, the “polymerase ribozyme fitness (log ratio)” value is -0.208.

On to A2G G35C, for which the “polymerase ribozyme fitness (log ratio)” value is -3.63.

Turning to U54C U59C G61U U125A, the “polymerase ribozyme fitness (log ratio)” value is -6.69.

Take C56U G77C: the “polymerase ribozyme fitness (log ratio)” value is -0.361.

With C49U G71C G117U G120A C124A, the “polymerase ribozyme fitness (log ratio)” value was -2.34.

With U55C G61A, the “polymerase ribozyme fitness (log ratio)” value is -0.329.

With A43G G48A G63A U78C U112C G127U, the “polymerase ribozyme fitness (log ratio)” value was -3.79.

For the variant U7A C15A A41C A66C, the “polymerase ribozyme fitness (log ratio)” value was -4.5.

As for C97A A111U, the “polymerase ribozyme fitness (log ratio)” value was -5.77.

As to C15U C62U U112G, the “polymerase ribozyme fitness (log ratio)” value is -0.275.

As to A46C C72A U112C C124U, the “polymerase ribozyme fitness (log ratio)” value stood at 1.22.

For the variant C8U G52U A105G, the “polymerase ribozyme fitness (log ratio)” value was -3.89.

C3A C62U A105G: the “polymerase ribozyme fitness (log ratio)” value was -4.05.

For the variant A100C A121G, the “polymerase ribozyme fitness (log ratio)” value was found to be 1.39.

Values taken from the RNAGym collection of RNA variant scans (doi:10.1073/pnas.2313332121).
